This is an account of results in article PMC2686167, “Structure of Human DNA Polymerase κ Inserting dATP Opposite an 8-OxoG DNA Lesion”.

For the data set, the target named is T1, DNA polymerase kappa catalytic core (Polκ19-526) (Homo sapiens, UniProt Q9UBT6 19-526).
T1 sequence: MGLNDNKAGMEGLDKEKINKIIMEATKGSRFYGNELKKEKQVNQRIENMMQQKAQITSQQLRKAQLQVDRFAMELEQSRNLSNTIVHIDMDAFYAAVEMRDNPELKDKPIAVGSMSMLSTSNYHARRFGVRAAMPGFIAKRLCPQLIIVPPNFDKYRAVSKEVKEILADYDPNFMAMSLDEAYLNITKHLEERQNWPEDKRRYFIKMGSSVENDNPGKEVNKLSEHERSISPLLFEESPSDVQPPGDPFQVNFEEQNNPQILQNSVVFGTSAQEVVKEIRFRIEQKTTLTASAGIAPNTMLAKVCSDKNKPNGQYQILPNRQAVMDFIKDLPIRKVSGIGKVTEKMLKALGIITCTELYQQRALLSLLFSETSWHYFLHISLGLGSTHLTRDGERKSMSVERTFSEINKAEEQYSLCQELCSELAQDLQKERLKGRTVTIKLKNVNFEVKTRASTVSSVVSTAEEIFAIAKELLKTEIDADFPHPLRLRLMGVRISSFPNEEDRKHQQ
The data set can be described thus: X-ray crystallography (3.2 Å); dATP, Mg2+ (ternary complex); Crystal structure only; cocrystallization conditions not in the material. The note with it: protein: recombinant; tags: N-terminal GST removed with PreScission protease; 5' overhang 5 nt on template; recessed 3' primer end.

B1: 13-nt/18-nt primer/template with 8-oxoG (dsDNA)
DNA 1: CCTAGGAGTCCTTCCCCC
DNA 2: GGGGGAAGGACTC
modifications: template G5 = 7,8-dihydro-8-oxoguanine; primer 3' terminal C = dideoxycytidine
For B1, the binding result is listed as “binds”.
